The source of these data is paper PMC10003956, “To the Understanding of Catalysis by D-Amino Acid Transaminases: A Case Study of the Enzyme from Aminobacterium colombiense” (Molecules, 2023).

Substrate in series [1]: N[C@H](CCC(=O)O)C(=O)O
The series is described as follows: purified protein. Particulars: 500 mM pyruvate, 60 µM PLP, 50 mM K-phosphate, pH 8.0, 60 °C. In kind it is biochemical, Aminobacterium colombiense.

Substrate in series [2]: O=C(O)CCC(=O)C(=O)O
Description: purified protein. In kind it is biochemical, Aminobacterium colombiense. Particulars: 500 mM D-alanine, 60 µM PLP, 50 mM CHES, pH 9.0, 60 °C.

B1: AmicoTA (Aminobacterium colombiense DSM 12261) (protein)
chain: MNLCYIDGKFLPLEEAKLPVTDLIIQRGVGVFETISTHSRRPLMLTPHLKRLEGSATASSIVMPATLDEMARIIREGIKKMGCETMVRPYITGGDSFGKDHLFSSSRYFVIFEEIRKPDPILYEKGVALHPINAERYLPSTKSINYMLSFTGQRDSKGAYEILYCPEGEIVEGSHSTFFLIKNGHLITAPTSRALSGTTRQIVLELARRGNIQVEERCPLLTELPEAEEAFITGTVKELLPVVRIGDQIIGNGVPGKLTKHLHQVYLSSIVEWLE
notes: N-terminal His6-TEV tag kept for kinetics, cut for crystals; E. coli Rosetta (DE3) pLysS
Consider B1, for which, in “purified protein [1]”, the Km is recorded as 5.2 ± 0.6 mM, the kcat was 1.4 ± 0.06 s⁻¹ and the specificity constant (kcat/Km) is 270 ± 40 M⁻¹ s⁻¹. Further, in the series “purified protein [2]”, the Km was determined as 7.2 ± 0.8 mM, the kcat came out at 9.9 ± 1.3 s⁻¹ and the kcat/Km was determined as 1380 ± 330 M⁻¹ s⁻¹.

The Km is the concentration of substrate that gives half-maximal velocity. Broadly, the kcat is the maximal rate divided by the concentration of active sites. As usually defined, the kcat/Km is the second-order rate constant that governs catalysis at low substrate concentration.
